Reference: patent US20240245613A1, “PEPTIDE LIQUID DROPLETS AND METHODS OF USING THE SAME” (RAMOT AT TEL AVIV UNIVERSITY LTD., priority 2021, published 2024)
“Also recorded” adds a separate entry of the source.

Key:
Format in all cases: physicochemical
[1] = Phase diagrams / liquid-liquid phase separation (turbidity at 500 nm, optical and confocal microscopy); settings: 0.2 M NaCl; for liquid-liquid phase separation (LLPS) / droplet formation, in words: as a function of peptide concentration and pH; for peptide concentration at which phase separation is observed: pH increased until turbidity appeared
Method: 150 μl of 5, 10, 20 and 30 mM peptide solutions were prepared in 20 mM of the suitable buffer (citrate buffer for a pH range of 3-6, tris buffer for pH range of 7-9 and ammonium bicarbonate to a pH range of 9-12) with 0.2 M NaCl. The pH was increased gradually until a turbidity appeared and measured as described below. The turbidity of 35 μl was measured in triplicates at λ=500 nm. This process repeated at higher pH, the pH increased until the turbidity faded, and a sediment appeared. All experiments were performed in triplicates and the presented value is the average.
150 μl of 20 μM peptide solutions were prepared in 20 mM Tris buffer. The pH was adjusted to the desired value of 6, 7, 8, 9, 10 and 11. The turbidity of 35 μl was measured in triplicates at λ=500 nm.
All samples were imaged in a 96 Well Black Glass bottom plate, glass 1.5H (made by Hangzhou Xinyou, and purchased from Danyel Biotech) 10 minutes after preparation. The images were taken by Zeiss Zen 900 confocal microscope with ×20/0.8 NA Plan-Apochromat air objective. The light microscopy images were taken at PMT mode. PMT imaging were taken with 561 nm laser and fluorescence imaging were taken with 488, 561 and 405 nm lasers for fluorescein, rhodamine B and GFP, respectively.
A phase diagram was created by increasing the pH at various peptide concentrations until a visible turbidity occurred. The turbidity was measured as the absorbance at λ=500 nm. To confirm that the turbidity occurred as a result of coacervation rather than precipitation, we performed an optical microscopy analysis of 20 mM peptide solution at pH 8.

[2] = Fluorescence recovery after photobleaching (FRAP) of peptide droplets; settings: for apparent diffusion coefficient, comparison in words: among the four LLPS-promoting peptides; for Apparent diffusion coefficient D: droplets prepared with 0.5% FITC labeled peptide, calculated from recovery time; for mobility and dynamics of the droplets: unit not given
Method: FRAP experiments were performed by a Zeiss Zen 900 confocal microscope with ×20/0.8 NA Plan-Apochromat air objective. A circular area with radius of 2.5 μm was bleached with a 488 nm laser 100% intensity at 10 iterations; subsequent recovery of the bleached area was recorded with a 488 nm laser. Photobleaching correction and recovery time were calculated using OriginLab. The final FRAP recovery curve is the average of recovery curves collected from five separate droplets.
A fluorescence […] after photo bleaching (FRAP) used to evaluate the diffusion of the droplets. The droplets were prepared with 0.5% of FITC labeled peptide and were observed by confocal microscope. The apparent diffusion coefficients were calculated as followed: […]

[3] = Encapsulation efficiency of fluorescent payloads in peptide droplets; settings: 20 mM peptide, 20 mM Tris + 0.2 M NaCl, pH 8
Method: 1 mM Stock solutions of the fluorescein and Rhodamine B dye molecules were prepared in 20 mM Tris buffer. A 20 mM peptide coacervated solutions were prepared in 20 mM Tris+0.2 M NaCl at pH 8. A 148.5 μl of peptide solution was mixed with 1.5 μl of dye solution in a 1.5 ml Eppendorf tube and was pipetted. The 15 μl of GFP solution was added to 135 μl of peptide solution and was mixed in a 1.5 ml Eppendorf tube and was pipetted. After 10 minutes the samples were centrifuged at 15,000 rcf for 10 minutes. A volume of 120 μl from the supernatant was collected and vortexed and then the absorbance of 35 μl triplicates was measured in a 384 well black plate by Biotek H1 synergy plate reader (purchased from Lumitron, Israel). For GFP, a 7.5 μl of 20 mM Tris buffer to a 7.5 μl GFP aliquot from the purchased stock solution. The 15 μl of GFP solution was added to 135 μl of peptide solution and was mixed in a 1.5 ml Eppendorf tube and was pipetted. The concentration of GFP at the supernatant was measured via fluorescence. All experiments were performed in triplicate. The concentration of the supernatant solutions determinate by calibration curves. Imaging was made to 30 μl of uncentrifuged samples.
LLPS are widely known for the ability to encapsulate small molecules or proteins. This characteristic is important for drug delivery and to exploits coacervate as microreactors. In order to investigate the encapsulation capacity of the designed peptides two fluorescent dyes were used (fluorescein and rhodamine B) and the protein GFP. The peptides WGR-1, WGR-3, WGR-4 and WGR-5 were chosen for this experiment for their diverse chemical characteristics. The encapsulation efficiency was measured via bulk measurements and images of the droplets with the dyes were taken in a fluorescence confocal microscope.

Row | Sequence | liquid-liquid phase separation (LLPS) / droplet formation, in words [1] | peptide concentration at which phase separation is observed [1] | apparent diffusion coefficient, comparison in words ([2]; FRAP) | Apparent diffusion coefficient D ([2]; FRAP) | encapsulation efficiency of GFP, in words [3] | mobility and dynamics of the droplets [2] | encapsulation efficiency of fluorescein, in words [3] | apparent diffusion coefficient (D), fold larger than that of WGR-5 ([2]; FRAP, compared with WGR-5)
1 | WGRGRGRGWPGVG (WGRGRGRGWPGVGF) [WGR-2] | arrested phase separation; also recorded: LLPS was not observed | – | – | – | – | – | – | –
2 | WGKGKGKGWPGVGY | showed no visual turbidity; also recorded: LLPS was not observed | – | – | – | – | – | – | –
3 | WGRGRGWPGVGY [WGR-5] | perform a phase separation at similar conditions to WGR-4 | 5 mM | lowest diffusion | 9.27E−15 m^2 sec^−1 | compromised encapsulation efficiency | – | – | –
4 | WGRGRGRGWY [WGR-4] | exhibit phase separation at more moderate conditions | 5 mM | lower diffusion coefficient than WGR-1 | 2.36E−14 m^2 sec^−1 | highest encapsulation efficiency | 2.36E-14 | no significant difference | –
5 | WGRGRGRGWPGVGF [WGR-3] | created LLPS at higher pH value comparing to WGR-1 | – | largest apparent diffusion coefficient | 5.52E−14 m^2 sec^−1 | lowest encapsulation efficiency | – | lowest encapsulation efficiency | more than 5 fold
6 | WGRGRGRGWPGVGY [WGR-1] | – | – | – | 4.518E−14 m^2 sec^−1 | – | 4.52E-14 | no significant difference | –
